Results reported in article PMC11262565.

Target: biotinylated human IgG1 Fc protein (IG1-H8213, ACROBiosystems) (human)
Test: BLI

Row | Kd | Substance
1 | 7.8 nM | Fc-ARM A-Z (HER2-specific affibody Z_(HER2:342) fused to a single Z domain) (designed binder)
2 | 0.28 nM | Fc-ARM A-ZZ (HER2-specific affibody Z_(HER2:342) fused to double Z domains) (designed binder)
